The source of these data is patent publication US20230312755A1 (ANGITIA, published 2023).

Test [1] deals with T1, pep5 (human, also: biotinylated (NHS-biotin), site not given here).
T1 construct: Chemically synthesized peptide of the second loop of human Sclerostin, biotinylated and immobilized on a streptavidin biosensor
T1 peptide: PNAIGRGKWWR
The experiment in a line: BLI (Gator), biotinylated peptide on streptavidin biosensor, 93B1B7 5 µg/ml as analyte. Here is the method:
(§1) The peptides were biotinylated (NHS-Biotin Reagents, Thermo, #21343) and immobilized on Streptavidin biosensor, using a 0.5 μg/ml solution.

In test [2] the target is T2, Pep1 (human, biotinylated (NHS-Biotin Reagents)).
T2 construct: Chemically synthesized peptide of the second loop of human Sclerostin, biotinylated and immobilized on a streptavidin biosensor; also called hScl 110-133
T2 peptide: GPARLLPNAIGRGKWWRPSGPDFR
The test is described as above. On the procedure: as §1

In test [3] the target is T3, pep6 (human, also: biotinylated (NHS-biotin), site not given here).
T3 construct: Chemically synthesized peptide of the second loop of human Sclerostin, biotinylated and immobilized on a streptavidin biosensor
T3 peptide: IGRGKWWRPSGP
The test is described as above. On the procedure:
as §1

Test [4] concerns the target T4, human Sclerostin (human, UniProt Q9BQB4 24-213).
T4 sequence: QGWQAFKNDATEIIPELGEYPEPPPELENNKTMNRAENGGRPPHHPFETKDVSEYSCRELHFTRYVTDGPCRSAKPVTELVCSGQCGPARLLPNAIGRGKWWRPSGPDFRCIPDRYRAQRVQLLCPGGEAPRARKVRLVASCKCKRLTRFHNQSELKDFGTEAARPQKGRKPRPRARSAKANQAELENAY
Description: cell-based or functional assay.

Test [5] deals with T5, His-tagged human Sclerostin (NCBI reference No. NP_079513.1) (human, UniProt Q9BQB4 24-213).
T5 construct: also called mouse His-tagged human Sclerostin; not shown: His tag
T5 sequence: T4 sequence
The experiment in a line: ELISA, plate coated with His-tagged human Sclerostin. On the procedure:
The ability of antibodies to specifically bind Sclerostin was determined by an ELISA capture assay. Plates were coated, in a 96-well half-area, with 100 μl/well of mouse His-tagged human Sclerostin (NCBI reference No. is NP_079513.1) [[…]], in coating buffer (PBS, pH 7.4), and incubated at RT for one hour, or 4° C. overnight. The plates were washed once with 100 μl/well of washing solution (PBS containing 0.2% Tween20, BIO-RAD). Plates were then incubated in blocking solution (PBS containing 1% BSA, 1% goat serum and 0.5% Tween20; 100 μl/well) for one hour at room temperature (RT). Anti-Sclerostin antibodies at various concentrations (1000, 333.3, 111.1, 37.0, 12.3, 4.1, 1.4, 0.5, 0.15, 0.05 ng/ml), a positive control antibody Romosozumab or non-Sclerostin related IgG (human or rat IgG, negative control), were then added to each well in 20 μl/well of blocking solution, and plates were incubated at RT for one hour. NeutrAvidin HRP (Pierce, Catalog #31001) diluted in blocking solution (1:50,000 dilution) was added at to each well ([…]), and the plates were incubated at RT for one hour prior to three washes with […] of washing solution. SuperSignal ELISA Femto (ThermoFisher Scientific, Catalog #37074) working solution was added to the plates ([…]), and the signal was read using a luminometer at 425 nm.

The target of test [6] is T6, Pep2 (biotinylated (NHS-biotin), site not given).
T6 construct: also called Pep2 mSOST
T6 peptide: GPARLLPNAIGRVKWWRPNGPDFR
The experiment in a line: BLI (Gator), biotinylated peptide on streptavidin biosensor, 93B1B7 as analyte. Here is the method: as §1

In test [7] the target is T7, Pep7 (also: biotinylated (NHS-biotin), site not given here).
T7 construct: also called Pep7 hSOST
T7 peptide: KWWRPSGPDFR
Described as above. Here is the method: as §1

Test [8] deals with T8, Pep3 (also: biotinylated (NHS-biotin), site not given here).
T8 construct: also called Pep3 h/mSOST
T8 peptide: GPARLLPNAIGR
The test is described as above. Here is the method: as §1

For test [9], the target named is T9, Pep10 (also: biotinylated (NHS-biotin), site not given here).
T9 construct: also called Pep 10 mSOST
T9 peptide: KWWRPNGPDFR
The description is as above. On the procedure:
as §1

In test [10] the target is T10, Pep4 (also: biotinylated (NHS-biotin), site not given here).
T10 construct: also called Pep4 hSOST
T10 peptide: RLLPNAIGRGK
The description is as above. Here is the method: as §1

The target of test [11] is T11, Pep8 (also: biotinylated (NHS-biotin), site not given here).
T11 construct: also called Pep8 mSOST
T11 peptide: PNAIGRVKWWR
The test is described as above. On the procedure:
as §1

Test [12] deals with T12, Pep9 (also: biotinylated (NHS-biotin), site not given here).
T12 construct: also called Pep9 mSOST
T12 peptide: IGRVKWWRPNGP
The test is described as above. On the procedure: as §1

For test [13], the target named is T4, human Sclerostin. The experiment in a line: BLI (Gator), antibody on anti-hFc biosensor, Sclerostin as analyte, 1:1 global fit. On the procedure: (§2) The binding affinity of humanized anti-Sclerostin antibodies to human and cynomolgus monkey Sclerostin were determined with bio-layer interferometry using a Gator instrument (Probe Life). Antibodies were immobilized on an anti-hFc biosensor, using a […]. Serial dilutions of human Sclerostin and cynomolgus monkey Sclerostin from 4 μg/ml by two folds in kinetics buffer (PBS, pH 7.4, 0.05% Tween-20, 0.2% BSA, 10 μM biotin) were used as the analytes. Affinity (KD) and kinetic parameters (Kₒₙ and Koff) were calculated from a global fit (1:1) of the data using the Gator software.

Test [14] deals with T13, cynomolgus monkey Sclerostin (cynomolgus monkey, UniProt Q9BG78 24-213 (Chlorocebus aethiops entry)).
T13 chain: T4 sequence with E26D, P70Q, E129A, T161P, S178G
The test is described as above. On the procedure:
as §2

Where a chain is given by its changes, count along the chain named. Ends that are not written are not given here.

B1: 93B1B7 (antibody, V domains shown)
VH: QAQLQQSGAELVRPGASVTLSCKASGYTFTDYEIHWMKQTPVHGLEWIGAIDPETGGTAYNQKFKGKAILTADRSSSTAYLELRSLTSEDSAVYYCYSYDYVTYWGQGTLVTVSA
VL: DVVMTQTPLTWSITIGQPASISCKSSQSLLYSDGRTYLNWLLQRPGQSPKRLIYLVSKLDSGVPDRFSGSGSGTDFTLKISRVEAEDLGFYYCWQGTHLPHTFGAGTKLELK
notes: Murine monoclonal antibody from a hybridoma; also called mAb 93B1B7; Antibody 93B1B7
Usually EC50 stands for the concentration that produces a half-maximal response. A word on the Kd: it is the concentration at which binding is half-saturated. Usually koff stands for the first-order rate constant of dissociation. Broadly, the kon is the second-order rate constant of association. Take B1: the binding result in [1] is reported as “binds”; in [2], “binds”; in test [3], “binds”; in test [6], “no binding (tested: 5 µg/ml)”; in test [7], “no binding (tested: 5 µg/ml)”; in [8], “no binding (tested: 5 µg/ml)”. Moreover, the binding result in test [9], in test [10], in test [11] and in [12] was “no binding (tested: 5 µg/ml)” each time. For the same molecule, the “EC50, Sclerostin-neutralisation activity in HEK293/TCF/LEF/Wnt1 cells (luciferase reporter)” value in test [4] was 57.9 nM. In test [5], the EC50 was found to be 0.04 nM. Further, the figures for the Kd in [13] and in test [14] were 0.051 nM and 0.018 nM, respectively. Also, the koff in test [13] worked out at 8.4e-05 s⁻¹; in test [14], 6.5e-05 s⁻¹. The kon in test [13] was determined as 1e+06 M⁻¹ s⁻¹; in [14], 2.2e+06 M⁻¹ s⁻¹.
